Laboratory results as given in the supplement of paper PMC10126150.
± gives the standard deviation of the averaged measurements.

Test system: ATP
Test: switch fluorescence ratio, 500 uM ATP over buffer (Cy3 cluster intensity, sum of 5 cycles each) (fold (ratio)); higher = stronger signal-on switching upon ATP binding; sequences stand for … in TCGTCGGCAGCGTCAGATGTGTATAAGAGACAGTTTTTTTTTTTTTTTTTTTTTTTTT…TC
Details: aptamer strand: ATP DNA aptamer (quencher-CACCTGGGGGAGTATTGCGGAGGAAGG + anchor), 100 nM annealed; ATP concentration: 500 uM
Outline: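 The fluorescence ratio divides summed target-cycle Cy3 intensity by summed buffer-cycle Cy3 intensity for each cluster and is averaged per switch-domain sequence. Cy3-labelled switching-strand clusters on a modified Illumina MiSeq flow-cell were annealed to 100 nM quencher-labelled ATP aptamer, then imaged in selection buffer and again after 15 min with 500 uM ATP at 22 °C. Five such cycles were run, with NaOH stripping and re-annealing between them, and clusters outside 100-1000 RFU were excluded.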
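Further: ATP exposure 15 min at 22 °C before imaging.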

Sequence | switch fluorescence ratio
CATTAAGGGC | 0.962 ± 0.04
GCGTAGGGGG | 0.95 ± 0.046
GGGAAATCGT | 1.02 ± 0.012
GAATGAGTTG | 0.977 ± 0.02
TTTGCCGCGT | 1.03 ± 0.012
TTGGGGTCTT | 1.02 ± 0.043
ATGTGGTTAC | 1.01 ± 0.048
TCAAAGAAC | 1.0338 ± 0.00026
AAGGTGCCTG | 1.02 ± 0.064
TGATTAATGT | 0.9996 ± 0.0099
TGGTGGCTTG | 0.991 ± 0.022
TGCGCCGGGT | 1.12 ± 0.1
ATGGGACGGC | 0.998 ± 0.032
GTAAGCAAAG | 1.2 ± 0.081
TGCGATACGG | 2.71 ± 0.12
ACTCCATACA | 1.21 ± 0.04
CTGTAGATTG | 0.983 ± 0.019
AACGTAGGGA | 1.93 ± 1.2
AGAGTATGGG | 1.01 ± 0.038
GGCCCTCTGA | 1.05 ± 0.018
TGCCCGGACA | 1.01 ± 0.027
TCATGGGGGA | 1.03 ± 0.046
ATAATGTGGG | 0.99618 ± 0.00014
TTTACGTTTT | 1.03 ± 0.041
TTATTCGGCA | 1.005 ± 0.0036

Sequence | switch fluorescence ratio
AAGCTTTCGT | 1.03 ± 0.014
ATAAGTTGCT | 0.968 ± 0.024
CAAGGAGGGG | 1.017 ± 0.0074
ATAGGTCTGC | 0.975 ± 0.038
TTAAAATGTC | 0.992 ± 0.014
TGAAGAACGC | 1.07 ± 0.021
TTGGCCGCAC | 2.67 ± 0.049
GATCCACGTG | 1.03 ± 0.015
GTCGCAAGGG | 1.15 ± 0.021
CATTTGATCC | 0.978 ± 0.0026
ATATGGATGT | 0.997 ± 0.029
AATGGTAGGG | 1 ± 0.03
TTTGGCATTA | 1.09 ± 0.1
ACACTGCCAT | 1.16 ± 0.032
TCAAGAGGTT | 1.001 ± 0.01
TTGTCTGTTA | 1 ± 0.043
GTTGCTACCT | 1.05 ± 0.038
TAAGTCGGGA | 0.952 ± 0.025
TTCTGATTGC | 0.984 ± 0.064
CTCGGGGGTA | 0.963 ± 0.031
ATGGCAACCG | 1.02 ± 0.012
CGGGGTTTTT | 1.03 ± 0.12
GGAATGGTAG | 1.01 ± 0.099
TAGAGATTTT | 1 ± 0.046
GATTTAGGAC | 0.967 ± 0.044

Sequence | switch fluorescence ratio
CGTGGGAGGC | 1.04 ± 0.077
GTTTAAGAAA | 0.998 ± 0.027
TTGCAGGTGG | 1.03 ± 0.011
TAGTTGAAGG | 0.9942 ± 0.0051
GGGGAGCGGC | 1.02 ± 0.0027
TTTAGGGAAA | 0.961 ± 0.033
TAGAAATGGT | 0.994 ± 0.041
TCCATTGTGT | 0.992 ± 0.029
CGTGTGGTGT | 1.03 ± 0.04
CTCTTTTGGT | 0.975 ± 0.02
CGAAGGCTCG | 0.99 ± 0.04
TGGTTAGAAA | 1.04 ± 0.017
GTGATTCAGG | 0.989 ± 0.029
AGAGGATGAT | 0.962 ± 0.013
TCTGCATGTT | 1.02 ± 0.012
TCAGGGAGGG | 1.06 ± 0.15
GACTCCAGGC | 1.22 ± 0.069
TGGTAGAAGG | 0.954 ± 0.013
TAATATTAAC | 1.02 ± 0.03
CGTGTATATA | 1.018 ± 0.0041
GCAACGGGTT | 1.16 ± 0.21
AGGGATTCAT | 1.02 ± 0.032
GCAGGAAGGC | 1.089 ± 0.0071
TTAACATGTT | 0.996 ± 0.022
TAAGGGGAGT | 1.01 ± 0.038

Sequence | switch fluorescence ratio
GGGTAAAGGG | 1 ± 0.045
AGGAAAATTT | 1 ± 0.047
CGCGTGGTA | 1.07 ± 0.013
GATAGGAGGA | 1 ± 0.027
AAATTCTGGG | 0.996 ± 0.0075
TAATTCTTGG | 0.972 ± 0.046
TGATTGAGTT | 1 ± 0.016
CATTAACGGG | 1.02 ± 0.013
TGAGTTTCCA | 0.958 ± 0.011
GGAAGTTCTA | 0.984 ± 0.016
TCTAAGCCAT | 1.05 ± 0.017
TACAAGAAGG | 1.015 ± 0.0066
GAAGGGCGGC | 1.01 ± 0.024
GCATTGGTTT | 0.982 ± 0.011
GTGTCGGGGT | 1.002 ± 0.004
TTTCCCAGGA | 1.13 ± 0.038
AAAATCAGCG | 1 ± 0.051
TCATGCCGGG | 1.04 ± 0.014
GGAAAGTAAA | 0.982 ± 0.014
CGGGCTTTAA | 0.995 ± 0.026
GGGAGGGACT | 1.03 ± 0.051
TCTACTGGGC | 1.05 ± 0.1
TTCGGGAGAG | 0.996 ± 0.071
TTGTGGAGTT | 1.01 ± 0.017
AGCGAGTTGG | 0.958 ± 0.039

Sequence | switch fluorescence ratio
ACATCAGATG | 1.005 ± 0.0023
CAGCTCTAAG | 1 ± 0.013
TGGAGTCAGG | 1.05 ± 0.049
AAGTGGGTTA | 1.02 ± 0.032
AAGACGGGGT | 1.01 ± 0.049
AAATGAGCGG | 0.9824 ± 0.0046
TGGGGGTGAG | 1 ± 0.029
CTGCGAATAA | 1.4 ± 0.098
CACGAATGCT | 1.04 ± 0.019
TATATGCCTT | 1.01 ± 0.036
TGATTATTGG | 1 ± 0.061
TAGCCTAGTT | 0.963 ± 0.022
GGTTGCTTGA | 0.9848 ± 0.002
TTGGGGAGGT | 1.01 ± 0.037
CGAGGTTAAT | 1.051 ± 0.0011
CGCGTTCATT | 0.972 ± 0.038
GGTGGAAGAT | 1 ± 0.045
CAATGGGGAA | 1 ± 0.014
CCACTGGGTG | 4.394 ± 0.031
TATAATTTCT | 1.04 ± 0.018
GGGGCGGGAG | 1.03 ± 0.042
GCCCGCCACA | 1.06 ± 0.041
AGTTTCTTAG | 1.015 ± 0.0019
TCAGTTAATT | 1.008 ± 0.0099
CAATAAGATT | 1.016 ± 0.0077

Sequence | switch fluorescence ratio
AAGATTTCGG | 1.015 ± 0.0084
AGTCGCGCGC | 0.989 ± 0.011
TTACGTTCTT | 1.048 ± 0.0096
GACCCTATTC | 1.09 ± 0.05
ATCAGGTACG | 1.02 ± 0.033
TGAGGGGCGC | 0.988 ± 0.028
CGTAGTGTAG | 1.02 ± 0.052
TGTAATCAAA | 1 ± 0.022
GATAGGGTTT | 1.06 ± 0.076
AAGTAGGTAT | 1.02 ± 0.011
TCGTGTTACT | 1.005 ± 0.008
TGGTAGCAGG | 1.24 ± 0.35
AGAGCCACTG | 1.01 ± 0.024
GCGCTCGAGT | 1.018 ± 0.0074
CGTAAAATAC | 2.85 ± 0.056
CGAGAGGGGG | 0.9723 ± 0.0065
AACTAGAGGG | 0.98 ± 0.017
TAAGAGGGTG | 1.11 ± 0.016
CAGAAAAAAC | 1.05 ± 0.035
GAGCCTTACT | 1.38 ± 0.26
AAGTGGGGTT | 1.02 ± 0.029
GTGTATCGTC | 0.9819 ± 0.0014
GGCGATCGCG | 1.02 ± 0.04
GGGCGGGGTG | 1.03 ± 0.025
AGCAGCGCGG | 1.04 ± 0.042

Sequence | switch fluorescence ratio
GGGACCTAAG | 1 ± 0.024
GGTGGGGGTT | 0.999 ± 0.036
GGGGTAAGCG | 0.978 ± 0.033
GATCGGTAAA | 0.999 ± 0.013
CGTGTATGG | 1.016 ± 0.0031
TAAGTGGTA | 0.993 ± 0.042
AAGGAGAAGA | 0.993 ± 0.01
GGAAACCCGC | 1.14 ± 0.071
ACCCGCCAGC | 3.96 ± 1.6
CATCACATGT | 1 ± 0.018
GGTTTGAGAG | 0.989 ± 0.048
CGGTACACGT | 1.0186 ± 0.00031
CAGCCTATGG | 0.991 ± 0.05
GAGAAGCGGT | 1.004 ± 0.008
GATTAGGGGG | 1.02 ± 0.043
AGGGAATGTT | 0.972 ± 0.033
GCCGGGTACG | 0.992 ± 0.029
ATGAGTTTTG | 0.984 ± 0.029
ATTAATTAAT | 1 ± 0.034
TTGTGGAGAG | 1.09 ± 0.12
TAATGCTTTT | 0.978 ± 0.03
TCTTGTACGT | 1.01 ± 0.03
CTTAGTCGGC | 0.967 ± 0.015
GGGTTCTAGT | 0.9972 ± 0.008
TTAATTCCAG | 1.01 ± 0.029

Sequence | switch fluorescence ratio
TTTAATTTTA | 1 ± 0.02
TTCGGGTCCT | 1.02 ± 0.031
CATTGGTGGT | 0.989 ± 0.0039
TGGGGGATG | 0.971 ± 0.018
CAGGGCGGGG | 0.979 ± 0.037
GTAGTCATTT | 0.992 ± 0.022
GGGACTAGTT | 0.959 ± 0.046
TGCGGTAAGG | 1 ± 0.031
ATGTACGTTT | 0.9983 ± 0.0007
GAGTGCTTGG | 0.973 ± 0.022
AAGATCTTAT | 1.01 ± 0.031
GGCCCGGCAC | 1.01 ± 0.013
TGGGTTCTAT | 0.9874 ± 0.0077
CGGGTGTGTC | 1.045 ± 0.0042
CTACCTCCGA | 3.16 ± 0.29
AAGTAAAGCT | 1.11 ± 0.06
TTGGAAAAAT | 1.05 ± 0.071
GGTCCAGGTT | 1.09 ± 0.068
TGTCGGATCG | 1 ± 0.013
GTACTATTTT | 1.036 ± 0.0037
TGGTCCGGGG | 1.01 ± 0.087
CTTGTTGATG | 1 ± 0.036
AGAGGCCGAT | 1.022 ± 0.0012
AAAAACGTAA | 1.1 ± 0.061
GTAAAAGCTC | 1.02 ± 0.018
